Results published in patent publication US20230242658A1 (published 2023).
Substitutions are numbered along the chain they refer to.

B1: PR007146 (bispecific antibody)
light: DIQMTQSPSTLSASVGDRVTVTCRASQSIYIWLAWYQQKPGKAPNLLIYKASSLETGVPSRFSGSGSGTEFTLTISSLQPDDFATYYCQQYYGSSRTFGQGTKVEIKRTVAAPSVFIFPPSDEQLKSGTASVVCLLNNFYPREAKVQWKVDNALQSGNSQESVTEQDSKDSTYSLSSTLTLSKADYEKHKVYACEVTHQGLSSPVTKSFNRGEC
heavy: EVQLVESGGGLVQPGGSLRLSCAASGFTFSSYWMSWVRQAPGKGLEWVANIKQEGSEKYYVDSVKGRFTISRDNAKNSLYLQMNSLRAEDTAVYYCARDRAVAGAFDIWGQGTMVTVSSASTKGPSVFPLAPSSKSTSGGTAALGCLVKDYFPEPVTVSWNSGALTSGVHTFPAVLQSSGLYSLSSVVTVPSSSLGTQTYICNVNHKPSNTKVDKKVEPKSCDKTHTCPPCPAPEAAGAPSVFLFPPKPKDTLMISRTPEVTCVVVDVSHEDPEVKFNWYVDGVEVHNAKTKPREEQYNSTYRVVSVLTVLHQDWLNGKEYKCKVSNKALPAPIEKTISKAKGQPREPQVYTLPPSREEMTKNQVSLTCLVKGFYPSDIAVEWESNGQPENNYKTTPPVLDSDGSFFLYSKLTVDKSRWQQGNVFSCSVMHEALHNHYTQKSLSLSPGGGSGGSEVQLVESGGGLVKPGGSLRLSCAASGFTFSDYYMSWVRQAPGKGLEWVSYISSSGSTIDYADSVKGRFTISRDNAKNSLFLEMNSLRAEDTAVYYCAREREEVAGTLDFDNWGQGTLVTVSS
B2: PR007141 (bispecific antibody)
light: B1 light
heavy: B1 heavy with A477V, V491F, S507G, S510T, F534Y, E536Q, E556P
B3: PR007145 (bispecific antibody)
light: B1 light
heavy: EVQLVESGGGLVQPGGSLRLSCAASGFTFSSYWMSWVRQAPGKGLEWVANIKQEGSEKYYVDSVKGRFTISRDNAKNSLYLQMNSLRAEDTAVYYCARDRAVAGAFDIWGQGTMVTVSSASTKGPSVFPLAPSSKSTSGGTAALGCLVKDYFPEPVTVSWNSGALTSGVHTFPAVLQSSGLYSLSSVVTVPSSSLGTQTYICNVNHKPSNTKVDKKVEPKSCDKTHTCPPCPAPEAAGAPSVFLFPPKPKDTLMISRTPEVTCVVVDVSHEDPEVKFNWYVDGVEVHNAKTKPREEQYNSTYRVVSVLTVLHQDWLNGKEYKCKVSNKALPAPIEKTISKAKGQPREPQVYTLPPSREEMTKNQVSLTCLVKGFYPSDIAVEWESNGQPENNYKTTPPVLDSDGSFFLYSKLTVDKSRWQQGNVFSCSVMHEALHNHYTQKSLSLSPGGGSGGSEVQLVESGGGLVKPGGSLRLSCAASGFTFSDYYMSWIRQAPGKGLEWVSYISRSGSTIYYADSVKGRFTISRDNAKNSLYLQMNSLRAEDTAVYYCARVRPGGSGNYWDWFDPWGQGTLVTVSS
B4: PR007143 (bispecific antibody)
light: B1 light
heavy: B1 heavy with A477V, V491F, S507G, S510T, F534Y, E536Q, E556A, L571P
B5: PR000701 (bispecific antibody)
chain 1: not shown
chain 2: EVQLVESGGGLVQPGGSLRLSCAASGFTFSSYWMSWVRQAPGKGLEWVANIKQEGSEKYYVDSVKGRFTISRDNAKNSLYLQMNSLRAEDTAVYYCARDRAVAGAFDIWGQGTMVTVSSASTKGPSVFPLAPSSKSTSGGTAALGCLVKDYFPEPVTVSWNSGALTSGVHTFPAVLQSSGLYSLSSVVTVPSSSLGTQTYICNVNHKPSNTKVDKKVEPKSC
chain 3: not shown
B6: PR003551 (bispecific antibody)
light: B1 light
heavy: EVQLVESGGGLVQPGGSLRLSCAASGFTFSSYWMSWVRQAPGKGLEWVANIKQEGSEKYYVDSVKGRFTISRDNAKNSLYLQMNSLRAEDTAVYYCARDRAVAGAFDIWGQGTMVTVSSASTKGPSVFPLAPSSKSTSGGTAALGCLVKDYFPEPVTVSWNSGALTSGVHTFPAVLQSSGLYSLSSVVTVPSSSLGTQTYICNVNHKPSNTKVDKKVEPKSCDKTHTCPPCPAPEAAGGPSVFLFPPKPKDTLMISRTPEVTCVVVDVSHEDPEVKFNWYVDGVEVHNAKTKPREEQYNSTYRVVSVLTVLHQDWLNGKEYKCKVSNKALGAPIEKTISKAKGQPREPQVYTLPPSREEMTKNQVSLTCLVKGFYPSDIAVEWESNGQPENNYKTTPPVLDSDGSFFLYSKLTVDKSRWQQGNVFSCSVMHEALHNHYTQKSLSLSPGEPKSSDKTHTPPPPPRTEVQLLESGGGLVQPGGSLRLSCAASGFIFSNFAMTWVRQPPEKGLKWVSSINGSGFNTYYTDSVKGRFTISRDNSRNTLYLQMNRLTAEDTAVYFCAKEGSSETDDHYYNVDVWGQGTTVTVSS
B7: PR001834 (antibody, V domains shown)
VH: EVQLLESGGGLVQPGGSLRLSCAASGFTFSGYAMTWVRQPPEKGLEWVSSISGSGNNTFYADSVKGRFTISRDNSKNTLYLQMNSLRAEDTAVYYCAKEGTTETDDYHYNMDVWGQGTTVTVSS
B8: PR001836 (antibody, V domains shown)
VH: EVQLLESGGGLVQPGGSLRLSCAASGFIFSNFAMTWVRQPPEKGLKWVSSINGSGFNTYYTDSVKGRFTISRDNSRNTLYLQMNRLTAEDTAVYFCAKEGSSETDDHYYNVDVWGQGTTVTVSS
B9: PR001830 (antibody, V domains shown)
VH: EVQLLESGGGLVQPGGSLRLSCTASGFTFSNYAMSWVRQAPEKGLEWVSSISGSGGSTFYADSVKGRFTISRDNSKNTLYLQMNSLRAEDTAVYFCAKEGSSETDDHYYNVDVWGQGTTVTVSS
B10: PR001833 (antibody, V domains shown)
VH: B9 VH with T23A, N31S, S101A, S102T, H107Y, Y108H, Y109F, V111T
B11: PR001767 (antibody, V domains shown)
VH: EVQLVETGGGLIQPGGSLRLSCAASGFTVSSNYMSWVRQAPGKGLEWVSVIYSDGSTYYADSVKGRFTISRDNSKNTLYLQMNSLRAEDTAVYYCARDRYYGSGNYPTAYYGMDVRGQGTTVTVSS
B12: PR001831 (antibody, V domains shown)
VH: EVQLVESGGGVIQPGGSLRLSCEASGFTFSSYAMSWVRQAPEKGLEWVSSISGSGDSTYYADSVKGRFTISRDNSKNTLYLQMNSLRAEDTAGYHCAKEGSNGTDDYHYDIDVWGQGTSVTVSS

Target: T1, human 4-1BB on CHO-K1 cells (human, UniProt Q07011 24-255)
Experiment: FACS

Binder | EC50
B1 | 6.95 nM
B2 | 4.62 nM
B3 | 22.4 nM
B4 | 3.4 nM

Target: T1, human 4-1BB on CHO-K1 cells
Experiment: FACS
Remark: another data set of the same source

Binder | EC50
B5 | 10.2 nM
B6 | 3.15 nM

Target: T2, human PD-L1 on CHO-K1 cells (human, UniProt Q9NZQ7 19-290)
Experiment: FACS

T2 sequence (Q9NZQ7 19-290): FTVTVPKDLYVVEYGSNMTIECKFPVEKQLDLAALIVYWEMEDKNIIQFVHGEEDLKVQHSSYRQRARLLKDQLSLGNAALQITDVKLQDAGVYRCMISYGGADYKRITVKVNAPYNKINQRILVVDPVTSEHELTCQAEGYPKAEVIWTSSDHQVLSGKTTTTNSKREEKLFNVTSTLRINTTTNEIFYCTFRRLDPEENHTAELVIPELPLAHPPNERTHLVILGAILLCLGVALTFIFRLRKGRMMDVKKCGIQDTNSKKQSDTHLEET

Binder | EC50
B5 | 1.72 nM
B6 | 1.29 nM

Target: T1, human 4-1BB on CHO-K1 cells
Experiment: FACS
Remark: another data set of the same source
Target sequence in this assay (Q07011 24-255): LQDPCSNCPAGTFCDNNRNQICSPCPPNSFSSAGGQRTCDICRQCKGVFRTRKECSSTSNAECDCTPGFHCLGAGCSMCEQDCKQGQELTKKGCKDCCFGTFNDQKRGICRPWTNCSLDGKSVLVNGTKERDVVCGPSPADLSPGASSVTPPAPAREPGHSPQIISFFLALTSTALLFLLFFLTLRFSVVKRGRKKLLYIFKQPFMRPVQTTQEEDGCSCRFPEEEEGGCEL

Binder | EC50
B7 | 0.449 nM
B8 | 0.28 nM
B9 | 0.209 nM
B10 | 0.21 nM

Target: T1, human 4-1BB on CHO-K1 cells
Experiment: FACS
Remark: another data set of the same source

Binder | EC50
B11 | 5.87 nM

Target: T3, cynomolgus monkey 4-1BB on CHO-K1 cells (cynomolgus monkey)
T3 chain: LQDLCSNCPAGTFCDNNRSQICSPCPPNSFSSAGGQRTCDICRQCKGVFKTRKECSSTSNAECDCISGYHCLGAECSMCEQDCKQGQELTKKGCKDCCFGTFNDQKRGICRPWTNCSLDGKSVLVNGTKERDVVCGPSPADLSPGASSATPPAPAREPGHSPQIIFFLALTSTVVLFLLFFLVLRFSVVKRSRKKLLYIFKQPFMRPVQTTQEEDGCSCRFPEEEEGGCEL
Experiment: FACS; FIG. 12B

Binder | EC50
B11 | 25 nM

Target: T3, cynomolgus monkey 4-1BB on CHO-K1 cells
Experiment: FACS; FIG. 12E

Binder | EC50
B7 | 3.46 nM
B12 | 2.58 nM
B8 | 2.41 nM
B9 | 0.899 nM
B10 | 1.02 nM

Target: T1, human 4-1BB on CHO-K1 cells
Experiment: FACS blocking of 4-1BBL
Target sequence in this assay (Q07011 24-255): as the sequence (Q07011 24-255) above

Binder | IC50
B7 | 2.93 nM
B12 | 4.05 nM
B8 | 2.12 nM
B9 | 2.32 nM
B10 | 2.31 nM

Target: T2, human PD-L1 on CHO-K1 cells
Experiment: FACS; MDA-MB-231 cells

Binder | EC50
B1 | 0.327 nM
B2 | 0.331 nM
B3 | 0.286 nM
B4 | 0.315 nM
